This is an account of results in patent publication US20240294638A1 (LES LABORATOIRES SERVIER, published 2024).

What is called EC50 (read off the curve) is the concentration that produces a half-maximal response. A word on the Kd: it is the equilibrium constant for the complex coming apart. By koff is commonly meant the rate constant with which the complex falls apart. As a reminder, the kon is the second-order rate constant of association.

Assay [1] addresses T1, human NKG2A and human CD94 expressed on transiently transfected CHO-S cells (human, UniProt Q13241 1-179).
T1 construct: whole, on cells; also called human NKG2A/CD94 heterodimer
The experiment in a line: flow cytometry, CHO-S cells transiently transfected with NKG2A variant and CD94, AF647 goat anti-human IgG secondary (MFI) [panel 23686]. How it is done: (§1) Six anti-human NKG2A antibodies were tested for binding to the different heterodimers expressed. Antibodies were tested for binding to the transfected cells in 3-fold serial dilutions from 1 μg/mL antibody, and 0 μg/ml antibody, and incubated for 30 min at 4° C. Following a washing step, the cells were incubated with a fluorescent goat anti-human IgG (H+L) secondary antibody (A-21445, Invitrogen) for 30 min at 4° C. in the dark. After a second wash, the cells were tested by high throughput flow cytometry (IQue screener, Sartorius). Data were transferred to Excel and graphs were generated using GraphPad Prism® software. A reference antibody analogue and an isotype control were included for comparison.
(In flow cytometry, cells or beads pass a laser one at a time.)

Assay [2] addresses T2, human NKG2C and human CD94 expressed on transiently transfected CHO-S cells (human, UniProt P26717 1-231; Q13241 1-179).
T2 construct: whole, on cells
The description is as above. How it is done: as §1

Assay [3] concerns the target T3, I225M (Homo sapiens).
T3 construct: co-expressed on CHO-S cells; also called human NKG2A I225M / human CD94 heterodimer on CHO-S cells
The assay is described as above. How it is done: as §1

Assay [4] deals with T1, human NKG2A and human CD94 expressed on …. The experiment in a line: flow cytometry, transiently transfected CHO-S cells, AF647 goat anti-human IgG secondary (MFI) [panel 23686]. As to the method: (§2) CHO-S cells were transiently transfected with human NKG2A and human CD94, human NKG2C and human CD94, cynomolgus NKG2A and cynomolgus CD94 or cynomolgus NKG2C and cynomolgus CD94 constructs. Mock transfected CHO-S cells were included in the assay as a negative control. Antibodies were tested for binding to the transfected cells in 3-fold dilutions from 30 μg/mL down to 0.5 ng/ml antibody, and 0 μg/mL antibody, and incubated for 30 min at 4° C. Following a washing step, the cells were incubated with a fluorescent goat anti-human IgG (H+L) secondary antibody (A-21445, Invitrogen) for 30 min at 4° C. in the dark. After a second wash, the cells were tested by high throughput flow cytometry (IQue screener, Sartorius). Data were transferred to Excel and graphs were generated using GraphPad Prism® software.

For assay [5], the target named is T2, human NKG2C and human CD94 expressed on …. The assay is described as above. How it is done:
as §2

Assay [6] deals with T4, cynomolgus NKG2A and cynomolgus CD94 expressed on transiently transfected CHO-S cells (cynomolgus, UniProt Q68VD2 1-233; Q68VD4 1-179).
T4 construct: whole, on cells
The description is as above. As to the method:
as §2

For assay [7], the target named is T5, cynomolgus NKG2C and cynomolgus CD94 expressed on transiently transfected CHO-S cells (cynomolgus).
T5 construct: whole, on cells
The assay is described as above. How it is done:
as §2

In assay [8] the target is T6, recombinant human NKG2C/CD94 heterodimer (extracellular domains) (human, UniProt P26717 94-231; Q13241 32-179).
T6 construct: extracellular domain; also called HuNKG2C/huCD94; NKG2C/CD94 ECDs
The experiment in a line: SPR (IBIS MX96), mAb captured on anti-human IgG Fc, ECD heterodimer injected, 1:1 fit. As to the method:
(§3) Kinetic binding analysis of anti-NKG2A monoclonal antibodies (mAbs) was performed by Surface Plasmon Resonance (SPR) using a Continuous Flow Microspotter (CFM, Wasatch Microfluidics, Salt Lake City, US) combined with an IBIS MX96 SPR instrument (IBIS Technologies, The Netherlands). The extracellular domains (ECDs) of human his-tagged NKG2A, NKG2C and FLAG-tagged CD94 were co-expressed using an Expi293™ expression system and purified by standard Ni-NTA chromatography followed by anti-Flag M2 affinity gel (A2220, Sigma). Binding kinetics were measured by capturing mAbs on a G-a-hu-IgG Fc SensEye® for 15 minutes using the CFM. After spotting, the SensEye® was positioned in the IBIS MX96 biosensor and immobilized mAbs were fixed by SensEye FixIt kit. Kinetic analysis was performed by applying a kinetic titration series injecting increasing concentrations of antigens from 1.6 nM to 400 nM as 2-fold dilutions. After each cycle of antigen injection, the surface was regenerated by 100 mM H₃PO₄, pH 3. Antigen association and dissociation were measured for 15 minutes. The recorded binding responses were fitted to a simple 1:1 binding model with Scrubber 2.0 software for calculation of the on-rate (kₒₙ or kₐ), off-rate (Koff or kd) and affinity (KD) constants. Binding kinetic parameters were measured as an average of three independent measuring points.

Assay [9] concerns the target T7, recombinant human NKG2A/CD94 heterodimer (extracellular domains) (human, UniProt Q13241 32-179).
T7 construct: extracellular domain; ECDs co-expressed in Expi293, purified by Ni-NTA and anti-Flag; also called HuNKG2A/huCD94; NKG2A/CD94 ECDs
The assay is described as above. How it is done: as §3

In assay [10] the target is T2, human NKG2C and human CD94 expressed on …. The experiment in a line: blocking of PE-conjugated HLA-E pentamer binding to transiently transfected CHO-S cells, flow cytometry (percentage binding) [cont.), panel C hNKG2C]. How it is done: (§4) CHO-S cells were transiently transfected with constructs for expression of human NKG2A and human CD94, human NKG2C and human CD94, cynomolgus NKG2A and cynomolgus CD94, or cynomolgus NKG2C and cynomolgus CD94. Mock transfected CHO-S cells were included in the assay as negative control. A PE-conjugated HLA-E pentamer was tested for binding to the heterodimers in the presence of anti-human NKG2A antibodies in 3-fold serial dilutions from 10 μg/mL down to 14 ng/mL antibody, and 0 μg/mL antibody. The antibodies were allowed to bind for 30 min at 4° C. prior to the addition of the HLA-E pentamer in a 1:50 dilution. The fluorescence intensity of HLA-E binding to the transfected cells was measured by high throughput flow cytometry (IQue screener, Sartorius). Data were transferred to Excel and graphs were generated using GraphPad Prism® software.

Assay [11] has as its target T5, cynomolgus NKG2C and cynomolgus CD94 …. The experiment in a line: blocking of PE-conjugated HLA-E pentamer binding to transiently transfected CHO-S cells, flow cytometry (percentage binding) [cont.), panel D cNKG2C]. How it is done: as §4
The target of the next assay is T8, CD94 homodimer (human, UniProt Q13241 32-179, limits assumed).
T8 sequence (looked up): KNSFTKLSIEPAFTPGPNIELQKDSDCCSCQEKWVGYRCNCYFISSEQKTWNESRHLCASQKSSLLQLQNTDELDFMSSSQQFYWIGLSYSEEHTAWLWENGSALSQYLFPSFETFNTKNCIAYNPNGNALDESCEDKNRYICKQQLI
The experiment in a line: SPR. How it is done: as §3
The binding affinities and kinetic parameters of the anti-NKG2A mAbs binding to NKG2A/CD94 and NKG2C/CD94 heterodimers are shown in Table 7. […] None of the mAbs bound to CD94 homodimer (data not shown).
On the technique in general: Surface plasmon resonance follows binding to a sensor surface in real time, without labels.

Assay [12] addresses T4, cynomolgus NKG2A and cynomolgus CD94 …. The experiment in a line: blocking of PE-conjugated HLA-E pentamer binding to transiently transfected CHO-S cells, flow cytometry (percentage binding) [panel B cNKG2A]. As to the method: as §4
Assay [13] addresses T1, human NKG2A and human CD94 expressed on …. The experiment in a line: flow cytometry, CHO-S cells transiently transfected with NKG2A variant and CD94, AF647 goat anti-human IgG secondary (MFI) [cont.), panel 23925]. As to the method: as §1
Assay [14] addresses T3, I225M. The description is as above. As to the method:
as §1

The target of assay [15] is T1, human NKG2A and human CD94 expressed on …. The experiment in a line: flow cytometry, transiently transfected CHO-S cells, AF647 goat anti-human IgG secondary (MFI) [cont.), panel 23925]. As to the method: as §2
For assay [16] the target is unchanged. The experiment in a line: flow cytometry, CHO-S cells transiently transfected with NKG2A variant and CD94, AF647 goat anti-human IgG secondary (MFI) [panel 23566]. As to the method: as §1
For assay [17] the target is unchanged. The experiment in a line: flow cytometry, transiently transfected CHO-S cells, AF647 goat anti-human IgG secondary (MFI) [panel 23566]. How it is done: as §2
The target in assay [18] is T4, cynomolgus NKG2A and cynomolgus CD94 …. The assay is described as above. How it is done: as §2

Positions count from the first letter of the chain named. Names may count otherwise.

T2 sequence (P26717 whole entry, one chain of several): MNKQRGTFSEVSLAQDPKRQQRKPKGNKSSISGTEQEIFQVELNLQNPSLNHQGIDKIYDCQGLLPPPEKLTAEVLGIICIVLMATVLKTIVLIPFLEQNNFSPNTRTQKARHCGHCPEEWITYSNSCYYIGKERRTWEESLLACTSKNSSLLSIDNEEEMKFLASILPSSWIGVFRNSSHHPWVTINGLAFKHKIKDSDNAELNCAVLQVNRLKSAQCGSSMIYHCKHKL
T6 sequence (P26717 94-231, chain 1 of 2, one chain of several): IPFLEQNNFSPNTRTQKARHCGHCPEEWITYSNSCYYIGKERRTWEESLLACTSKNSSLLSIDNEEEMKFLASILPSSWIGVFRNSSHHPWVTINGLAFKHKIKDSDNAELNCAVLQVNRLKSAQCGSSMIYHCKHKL
T7 sequence (chain, as listed by the source, chain 1 of 2, one chain of several): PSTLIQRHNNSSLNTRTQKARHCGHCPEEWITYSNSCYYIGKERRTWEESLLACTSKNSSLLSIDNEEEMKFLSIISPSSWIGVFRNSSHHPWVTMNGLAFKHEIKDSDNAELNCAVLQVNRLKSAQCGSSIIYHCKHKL
T3 sequence (P26715 whole entry I225M): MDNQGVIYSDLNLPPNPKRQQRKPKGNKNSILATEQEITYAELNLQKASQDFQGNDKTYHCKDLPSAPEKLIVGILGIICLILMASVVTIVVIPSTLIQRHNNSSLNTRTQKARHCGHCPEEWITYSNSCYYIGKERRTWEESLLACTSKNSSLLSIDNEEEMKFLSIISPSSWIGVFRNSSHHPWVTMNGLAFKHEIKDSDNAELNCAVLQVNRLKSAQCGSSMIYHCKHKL

B1: antibody 23686 (antibody, human IgG1, kappa, L234A L235A, V domains shown)
VH: EVQLVESGGGLVKPGGSLRLSCAASGFTFSSYSMNWVRQAPGKGLEWVSSISSSSSYIYYADSVKGRFTISRDNAKNSLYLQMNSLRAEDTAVYYCARDEWGLLGFDSWGQGTLVTVSS
VL: EIVLTQSPATLSLSPGERATLSCRASQSISNYLAWYQQKPGQAPRLLIYDASNRATGIPARFSGSGSGTDFTLTISSLEPEDFAVYYCQQRTDWPPWTFGQGTKVEIKR
notes: Fully human IgG1-LALA (L234A/L235A), kappa
Consider B1, for which the concentration for a half-maximal effect (EC50 (read off the curve)) in [1] was approximately 0.005 µg/mL; in [2], approximately 0.003 µg/mL; with I225M [3] it was approximately 0.007 µg/mL; in [4], approximately 0.03 µg/mL; in assay [5] it was approximately 0.01 µg/mL; in assay [6], approximately 0.02 µg/mL. The “EC50 (read off the curve)” value in assay [7] is approximately 0.02 µg/mL. The Kd in assay [8] is 3.9 nM; in assay [9], 0.72 nM. For the same molecule, the values for the koff in assay [8] and in assay [9] were 0.0026 s⁻¹ and 0.00014 s⁻¹, respectively. In addition, the figures for the kon in [8] and in assay [9] were 670000 M⁻¹ s⁻¹ and 200000 M⁻¹ s⁻¹, respectively. Further, the “IC50 (read off the curve)” value in [10] was approximately 0.2 µg/mL; in [11] it was approximately 0.7 µg/mL; in assay [12], approximately 0.3 µg/mL. The binding result with CD94 homodimer is given as “no binding”.

B2: antibody 23925 (antibody, human IgG1, kappa, L234A L235A, V domains shown)
VH: EVQLVESGGGLVQPGGSLRLSCAASGFTFSSYAMNWVRQAPGKGLEWVSTISNSGGTTYYADSVKGRFTISRDNSKDTLYLQMNSLRAEDTAVYYCAKAHYYARGYFDYWGQGTLVTVSS
VL: DIQMTQSPSSVSASVGDRVTITCRASQGISSWLAWYQQKSGKAPKLLIYAASSLQIGVPSRFSGSGSGTDFTLTISSLQPEDFATYYCQQANSFPYTFGQGTKLEIKR
notes: as for B1
Consider B2, for which the figures for the “EC50 (read off the curve)” value (in assay [13]; with I225M [14]; in assay [15]) were approximately 0.004 µg/mL, approximately 0.003 µg/mL and approximately 0.02 µg/mL, respectively. The Kd in assay [8] turned out to be 68 nM; in [9] it was 2.23 nM. Besides, the koff in assay [8] is 0.0006 s⁻¹; in assay [9], 0.00042 s⁻¹. Further, the kon was 8800 M⁻¹ s⁻¹ in assay [8] and 190000 M⁻¹ s⁻¹ in assay [9]. For the same molecule, the binding result is reported as “no binding” with CD94 homodimer and “no binding (tested: 10000 ng/ml)” in assay [12].

B3: antibody 23566 (antibody, human IgG1, kappa, L234A L235A, V domains shown)
VH: B2 VH with V5L, G10D, S30D, S31N, N35H, S52T, I70L, D77N, Y109F
VL: B2 VL with S7T, S40P, I56S
notes: Fully human IgG1-LALA (L234A/L235A), kappa; also called mAb 23566
Take B3: the Kd in assay [8] stood at 98 nM; in [9], 2.5 nM. For the same molecule, the dissociation rate constant (koff) in assay [8] was 0.00083 s⁻¹; in [9], 0.0011 s⁻¹. The on-rate constant (kon) was determined as 8500 M⁻¹ s⁻¹ in [8] and 420000 M⁻¹ s⁻¹ in assay [9]. In addition, the results for the “EC50 (read off the curve)” value in assay [16] and in assay [17] were approximately 0.005 µg/mL and approximately 0.02 µg/mL, respectively. Further, the binding result is on record as “no binding” with CD94 homodimer and “no binding (tested: about 3300 ng/ml)” in [18].
